Laboratory results reported in publication PMC5663475, “SAV1 promotes Hippo kinase activation through antagonizing the PP2A phosphatase STRIPAK” (eLife, 2017).
Non-standard residues stand in square brackets, D forms with d. No end group written: not given here. pT = C[C@@H](OP(=O)(O)O)[C@H](N)C(=O)O

B1: pT378-MST2^371-401 (peptide)
peptide: DEEEEDG[pT]MKRNATSPQVQRPSFMDYFDKQD
notes: MST2, human, linker residues 371-401; source: synthetic peptide
B2: pT378-MST2^373-382 (peptide)
peptide: EEEDG[pT]MKRN
notes: MST2, human, linker residues 373-382; also called pMST2; source: synthetic peptide
B3: pT325-MST2^320-329 (peptide)
peptide: ELDSH[pT]MVKT
notes: MST2, human, linker residues 320-329; source: synthetic peptide
B4: pT336-MST2^331-340 (peptide)
peptide: VESVG[pT]MRAT
notes: MST2, human, linker residues 331-340; source: synthetic peptide
B5: SAV1 E346A: SAV1 SARAH (residues 321–383) mutant (protein)
chain: ILKWELFQLADLDTYQGMLKLLFMKALEQIVKMYEAYRQALLTELENRKQRQQWYAQQHGKNF
modifications: not fully specified (N-terminus); also: 35S-methionine labelled, Myc tag, end not given here
notes: SAV1 SARAH (residues 321–383) mutant
B6: I350A: SAV1 SARAH (residues 321–383) mutant (protein, UniProt Q9H4B6 321-383, looked up, variant I350A)
chain: ILKWELFQLADLDTYQGMLKLLFMKELEQAVKMYEAYRQALLTELENRKQRQQWYAQQHGKNF
modifications: SARAH domain
notes: as for B5
B7: Y357A: SAV1 SARAH (residues 321–383) mutant (protein, UniProt Q9H4B6 321-383, looked up, variant Y357A)
chain: ILKWELFQLADLDTYQGMLKLLFMKELEQIVKMYEAARQALLTELENRKQRQQWYAQQHGKNF
modifications: SARAH domain
notes: as for B5
B8: L361A: SAV1 SARAH (residues 321–383) mutant (protein, UniProt Q9H4B6 321-383, looked up, variant L361A)
chain: ILKWELFQLADLDTYQGMLKLLFMKELEQIVKMYEAYRQAALTELENRKQRQQWYAQQHGKNF
modifications: SARAH domain
notes: as for B5
B9: L365A: SAV1 SARAH (residues 321–383) mutant (protein, UniProt Q9H4B6 321-383, looked up, variant L365A)
chain: ILKWELFQLADLDTYQGMLKLLFMKELEQIVKMYEAYRQALLTEAENRKQRQQWYAQQHGKNF
modifications: SARAH domain
notes: as for B5
B10: R368A: SAV1 SARAH (residues 321–383) mutant (protein, UniProt Q9H4B6 321-383, looked up, variant R368A)
chain: ILKWELFQLADLDTYQGMLKLLFMKELEQIVKMYEAYRQALLTELENAKQRQQWYAQQHGKNF
modifications: SARAH domain
notes: as for B5
B11: SAV1 ∆N268: SAV1 SARAH alone (protein, UniProt Q9H4B6 269-383, looked up, fragment)
chain: SVPRYDQPPPVTYQPQQTERNQSLLVPANPYHTAEIPDWLQVYARAPVKYDHILKWELFQLADLDTYQGMLKLLFMKELEQIVKMYEAYRQALLTELENRKQRQQWYAQQHGKNF

How the values were obtained:
[1] = tested on: MCF10A cells; test: Immunoblot of Hippo pathway phosphorylation after latrunculin B treatment; type: cell-based, human; settings: LatB 1 μg/ml, 1 hr
Protocol: 293FT cells (Thermo Scientific, catalogue #R70007; not independently authenticated) were cultured in DMEM supplemented with 10% fetal bovine serum, 2 mM L-glutamine and 1% penicillin/streptomycin. MCF10A cells (ATCC, catalogue #CRL-10317; not independently authenticated) were cultured in DMEM/F12 containing 5% horse serum, 20 ng/ml EGF, 0.5 μg/ml hydrocortisone, 100 ng/ml cholera toxin, 10 μg/ml insulin and 1% penicillin/streptomycin. All cells were incubated at 37°C in a humidified 5% CO2 atmosphere. All cell lines were checked by 4’,6-diamidino-2-phenylindole (DAPI) staining to ascertain that they were free of mycoplasma contamination. Transient transfection of 293FT cells was performed with Lipojet (Signagen). Cells were collected for further experiments after 24 hr. siRNA transfection was performed with Lipofectamine RNAiMAX (Invitrogen, Waltham, MA) according to manufacturer’s instructions. The following siRNAs were synthesized by Dharmacon and used in this study: siSLMAP #1, […]dTdT; siSLMAP #2, […]dTdT; siSTRIP1, […]dTdT.
Rabbit polyclonal MST2 phospho-T336 antibody was raised against the MST2 phospho-peptide with the sequence of ESVGpTMRATC at an on-campus facility. Generation of the MST2 phospho-T378 antibody was described previously ([Ni et al., 2015]). […] For immunoblotting, cell lysates and immunoprecipitates were analyzed by standard immunoblotting. The membranes were scanned and band intensities were quantified by the Odyssey Infrared Imaging System (LI-COR). […] We quantified phospho- and total protein bands in a set of three independent experiments. […] The ratios of normalized phospho-proteins versus normalized total proteins were calculated and plotted. […]

[2] = target: MOB1^33-216 (human) (UniProt Q9H8S9); test: ITC; MicroCal iTC200, 20 °C; 50 µM protein in the cell titrated with 500 µM phospho-peptide; 20 mM Tris pH 8.0, 50 mM NaCl (5% DMSO for pT325-MST2 320-329); A + B <-> AB model
[3] = target: T1, SLMAP FHA (residues 1–140) (human, UniProt Q14BN4 1-140); test: as above; settings: both partners purified
T1 construct: SLMAP, human, FHA domain, residues 1-140; also called SLMAP FHA domain; apo-SLMAP FHA; source: E. coli BL21 (DE3)-T1R, purified (glutathione-Sepharose, TEV cleavage, Superdex 75); not shown: GST, N-terminal, cleaved
T1 sequence (looked up): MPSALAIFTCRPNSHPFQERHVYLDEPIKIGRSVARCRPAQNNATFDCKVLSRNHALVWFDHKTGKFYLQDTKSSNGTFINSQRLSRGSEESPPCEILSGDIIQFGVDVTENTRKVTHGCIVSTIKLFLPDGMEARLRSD

[4] = target: T2, SLMAP FHA/R32A (human, UniProt Q14BN4 1-140, R32A); test: as above; settings: both partners purified
T2 construct: SLMAP, human, FHA domain, residues 1-140, R32A; also called SLMAP FHA/R32A mutant; source: E. coli BL21 (DE3)-T1R, purified (glutathione-Sepharose, TEV cleavage, Superdex 75); not shown: GST, N-terminal, cleaved
T2 sequence (looked up): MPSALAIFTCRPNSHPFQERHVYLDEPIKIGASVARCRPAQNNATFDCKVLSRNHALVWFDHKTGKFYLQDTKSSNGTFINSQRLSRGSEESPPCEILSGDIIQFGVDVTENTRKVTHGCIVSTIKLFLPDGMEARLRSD

[5] = tested on: MST2 SARAH; test: In vitro pull-down of 35S-labeled SAV1 SARAH by GST-MST2 SARAH; type: binding, human; settings: GST-MST2 SARAH pull-down of in vitro translated 35S-labeled Myc-SAV1 SARAH (residues 321–383), SDS-PAGE, autoradiography
Protocol: To assay the heterodimerization of SARAH domains between MST2 and SAV1, Myc-tagged SAV1 SARAH (residues 321–383) and the corresponding mutants were in vitro translated in reticulocyte lysate in the presence of ^35S-methionine according to the manufacturer’s protocol (Pierce). Purified GST-MST2 SARAH (residues 430–491) fusion protein was bound to glutathione-Sepharose beads and incubated with ^35S-labeled SAV1 SARAH WT and mutants. The beads were washed three times with TBS containing 0.05% (v/v) Tween. The proteins retained on the beads were analyzed by SDS-PAGE followed by autoradiography.

[6] = tested on: MST2; test: MST2-SAV1 autophosphorylation (pT180); type: biochemical, human; settings: 2.5 µM MST2-SAV1 complex, dephosphorylated by 0.5 µM PP2A A-C, then 5 µM okadaic acid; 2 mM ATP, anti-pT180 blot; at least two independent experiments
Protocol: For assaying MST2-SAV1 autophosphorylation, 2.5 µM MST2-SAV1-ΔN198 or MST2-SAV1-ΔN268 was dephosphorylated by 0.5 µM PP2A A-C core complex for 30 min at room temperature. Okadaic acid was then added to a final concentration of 5 µM and the reaction mixture was incubated on ice for another 30 min. The reaction mixture was diluted by a ratio of 1:5 at room temperature with a kinase reaction buffer containing 50 mM Tris (pH 7.5), 150 mM NaCl, 5 mM MgCl2, 2 mM ATP, and 1 mM DTT. At different time intervals, autophosphorylation was terminated by adding 2X SDS loading buffer and boiling for 5 min in 100 °C water bath. All samples were separated by SDS-PAGE and blotted by a specific antibody against pT180 of MST2.

| Molecule | Kd [3] [nM] | dH [3] [kcal/mol] | binding of SAV1 SARAH mutant to MST2 [5] | further results |
| --- | --- | --- | --- | --- |
| C/C1=C/C(=O)O[C@@H]2C[C@@H](CC[C@H](C)/C=C\CC1)O[C@@](O)([C@@H]1CSC(=O)N1)C2 [LatB, Latrunculin B] |  |  |  | MOB1 T35 phosphorylation [1]: induced; MST1/2 T-loop phosphorylation [1]: induced; downstream phosphorylation of LATS1/2 and YAP [1]: induced |
| B1 | 393 | -9.5 |  | dH [2]: -13.5 kcal/mol |
| B2 | 160 | -9 |  | dH [2]: -4 kcal/mol; Kd [4]: 18800 nM; dH [4]: -6.7 kcal/mol |
| B3 | 392 | -10.3 |  |  |
| B4 | 1140 | -8.2 |  |  |
| B5 |  |  | completely lost the binding to MST2 |  |
| B6 |  |  | completely lost the binding to MST2 |  |
| B7 |  |  | completely lost the binding to MST2 |  |
| B8 |  |  | completely lost the binding to MST2 |  |
| B9 |  |  | completely lost the binding to MST2 |  |
| B10 |  |  | completely lost the binding to MST2 |  |
| B11 |  |  |  | MST2 activation (T180 autophosphorylation) in vitro [6]: blocked MST2 activation in vitro |
